Article PMC9630320, “Interaction between DLC-1 and SAO-1 facilitates CED-4 translocation during apoptosis in the Caenorhabditis elegans germline” (Cell Death Discovery, 2022)
Residue numbers refer to the chain shown, from its start. Names and notes keep the numbering of the source. Each block holds one molecule with its values, some of them ahead of it.

Tests used:
[1] = target: SAO-1::RFP (C. elegans); assay: FRET or BRET; fluorescence lifetime imaging (FLIM) of the GFP donor in live adult worms; TCSPC
[2] = target: purified C-terminal region (residues 182–226) of SAO-1 (ITC) (C. elegans); assay: ITC; 25 °C; 50 mM Tris-Cl pH 7.5, 100 mM NaCl; 400 μM DLC-1 injected into 40 μM SAO-1; 13 titrations; one-site binding model
[3] = target: SAO-1C1(182-205) peptide (crystal) (C. elegans); assay: crystal structure; sitting drop vapor diffusion at 16 °C; 0.2 M potassium chloride, 0.05 M HEPES pH 7.5, 35% pentaerythritol propoxylate; 2.4 Å
[4] = target: T1, Trx-His6-DLC-1, Q22799; assay: pull-down (GST pull-down, Western blot with His antibody, band quantification); conditions: chain shown with the change;; parent: est. 1.0; read off a plot
T1 chain: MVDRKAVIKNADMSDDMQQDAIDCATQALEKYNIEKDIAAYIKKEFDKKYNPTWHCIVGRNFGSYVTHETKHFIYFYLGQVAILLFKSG

[5] = target: the molecule itself; assay: crystal structure; sitting drop vapor diffusion at 16 °C; 0.2 M potassium chloride, 0.05 M HEPES pH 7.5, 35% pentaerythritol propoxylate; 2.4 Å

Molecule: DLC-1::GFP (from UniProt Q22799 1-89) (natural protein)
GFP mean fluorescence lifetime (τ) with SAO-1::RFP [1]: 2.85 ns

B2: GST-SAO-1 C199A; Q200A; T201A (protein)
chain: MHKNGNNGPVIDTKWHYLGPDSEKYGPYMSKDMLFWLQAGYFNDGLQLKTENEPNYHTLGEWSQLLGTHPFSMPVHSLDATIAQMNSMRPHGAMMMVPPGLQNQFQPPMPMRFPPFLPMPLLHQMNQNGPPMGAQMHSQPPSEPIDAGSLSHTPDSENEFQGHGRKPHHHQQILAHQHIPQMQHANVATDQVVMKSVEAAAEPVEISKEQASRVLSELLGQMVIIN
ratio to parent [4]: 0.15

B3: full-length DLC-1 (ITC and crystallography) (natural protein, C. elegans, UniProt Q22799 1-89, looked up)
chain: T1 chain
notes: dynein light chain 1 (DLC-1), C. elegans; Same construct as m1; Forms dimers in the crystal
binding result [5]: binds

Next, values leading:

Kd [2]: 500 nM | stoichiometry N (DLC-1 per SAO-1) [2]: 2 | stoichiometry N (DLC-1 per SAO-1) [3]: 2
Molecule: full-length DLC-1 (ITC and crystallography) (from UniProt Q22799 1-89) (natural protein)

ratio to parent [4]: 0.57
B1: GST-SAO-1 V187A; T189A (protein)
chain: B2 chain with V187A, T189A, A199C, A200Q, A201T
